According to US20050043264:

Experiments:
[1] = target: T1, Drosophila Ena (overexpressed in BG2-c2 cells), Q8T4F7
T1 chain: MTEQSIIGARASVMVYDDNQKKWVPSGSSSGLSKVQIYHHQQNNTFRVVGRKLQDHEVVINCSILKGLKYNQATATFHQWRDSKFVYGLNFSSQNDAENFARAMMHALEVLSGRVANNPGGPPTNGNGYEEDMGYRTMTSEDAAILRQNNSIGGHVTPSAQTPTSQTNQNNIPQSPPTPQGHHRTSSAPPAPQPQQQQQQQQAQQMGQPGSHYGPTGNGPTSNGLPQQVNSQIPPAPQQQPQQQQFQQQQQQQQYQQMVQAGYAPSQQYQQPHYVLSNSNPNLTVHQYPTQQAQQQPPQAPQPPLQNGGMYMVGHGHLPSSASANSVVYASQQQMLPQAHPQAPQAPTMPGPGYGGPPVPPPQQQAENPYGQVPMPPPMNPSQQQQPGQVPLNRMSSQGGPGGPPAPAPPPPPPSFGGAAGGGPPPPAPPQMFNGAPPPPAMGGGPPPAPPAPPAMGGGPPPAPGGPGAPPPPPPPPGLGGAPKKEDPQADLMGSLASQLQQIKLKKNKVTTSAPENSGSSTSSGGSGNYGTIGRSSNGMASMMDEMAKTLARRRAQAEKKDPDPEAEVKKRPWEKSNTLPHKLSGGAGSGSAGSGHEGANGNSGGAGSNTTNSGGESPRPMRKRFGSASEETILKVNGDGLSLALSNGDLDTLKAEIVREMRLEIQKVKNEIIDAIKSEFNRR

[2] = target: Drosophila Cdk5 (endogenous, BG2-c2 neuronal cells), P48609
Drosophila Cdk5 (endogenous, BG2-c2 neuronal cells), P48609, sequence (P48609 whole entry): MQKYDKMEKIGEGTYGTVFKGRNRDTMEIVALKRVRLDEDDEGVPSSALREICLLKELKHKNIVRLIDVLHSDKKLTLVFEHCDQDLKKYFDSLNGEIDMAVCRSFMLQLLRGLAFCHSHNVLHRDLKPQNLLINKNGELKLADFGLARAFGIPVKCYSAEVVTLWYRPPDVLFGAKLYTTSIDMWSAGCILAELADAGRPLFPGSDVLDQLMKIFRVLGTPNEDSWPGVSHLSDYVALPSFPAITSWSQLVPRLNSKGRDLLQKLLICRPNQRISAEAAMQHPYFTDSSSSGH

B1: Drosophila Abl kinase (endogenous, BG2-c2 neuronal cells) (protein)
chain: MGAQQGKDRGAHSGGGGSGAPVSCIGLSSSPVASVSPHCISSSSGVSSAPLGGGSTLRGSRIKSSSSGVASGSGSGGGGGGSGSGLSQRSGGHKDARCNPTVGLNIFTEHNEALLQSRPLPHIPAGSTAASLLADAAELQQHQQDSGGLGLQGSSLGGGHSSTTSVFESAHRWTSKENLLAPGPEEDDPQLFVALYDFQAGGENQLSLKKGEQVRILSYNKSGEWCEAHSDSGNVGWVPSNYVTPLNSLEKHSWYHGPISRNAAEYLLSSGINGSFLVRESESSPGQRSISLRYEGRVYHYRISEDPDGKVFVTQEAKFNTLAELVHHHSVPHEGHGLITPLLYPAPKQNKPTVFPLSPEPDEWEICRTDIMMKHKLGGGQYGEVYEAVWKRYGNTVAVKTLKEDTMALKDFLEEAAIMKEMKHPNLVQLIGVCTREPPFYIITEFMSHGNLLDFLRSAGRETLDAVALLYMATQIASGMSYLESRNYIHRDLAARNCLVGDNKLVKVADFGLARLMRDDTYTAHAGAKFPIKWTAPEGLAYNKFSTKSDVWAFGVLLWEIATYGMSPYPAIDLTDVYHKLDKGYRMERPPGCPPEVYDLMRQCWQWDATDRPTFKSIHHALEHMFQESSITEAVEKQLNANATSASSSAPSTSGVATGGGATTTTAASGCASSSSATASLSLTPQMVKKGLPGGQALTPNAHHNDPHQQQASTPMSETGSTSTKLSTFSSQGKGNVQMRRTTNKQGKQAPAPPKRTSLLSSSRDSTYREEDPANARCNFIDDLSTNGLARDINSLTQRYDSETDPAADPDTDATGDSLEQSLSQVIAAPVTNKMQHSLHSGGGGGGIGPRSSQQHSSFKRPTGTPVMGNRGLETRQSKRSQLHSQAPGPGPPSTQPHHGNNGVVTSAHPITVGALDVMNVKQVVNRYGTLPKGARIGAYLDSLEDSSEAAPALPATAPSLPPANGHATPPAARLNPKASPIPPQQMIRSNSSGGVTMQNNAAASLNKLQRHRTTTEGTMMTFSSFRAGGSSSSPKRSASGVASGVQPALANLEFPPPPLDLPPPPEEFEGGPPPPPPAPESAVQAIQQHLHAQLPNNGNISNGNGTNNNDSSHNDVSNIAPSVEEASSRFGVSLRKREPSTDSCSSLGSPPEDLKEKLITEIKAAGKDTAPASHLANGSGIAVVDPVSLLVTELAESMNLPKPPPQQQQKLTNGNSTGSGFKAQLKKVEPKKMSAPMPKAEPANTIIDFKAHLRRVDKEKEPATPAPAPATVAVANNANCNTTGTLNRKEDGSKKFSQAMQKTEIKIDVTNSNVEADAGAAGEGDLGKRRSTGSINSLKKLWEQQPPAPDYATSTILQQQPSVVNGGGTPNAQLSPKYGMKSGAINTVGTLPAKLGNKQPPAAPPPPPPNCTTSNSSTTSISTSSRDCTSRQQASSTIKTSHSTQLFTDDEEQSHTEGLGSGGQGSADMTQSLYEQKPQIQQKPAVPHKPTKLTIYATPIAKLTEPASSASSTQISRESILELVGLLEGSLKHPVNAIAGSQWLQLSDKLNILHNSCVIFAENGAMPPHSKFQFRELVTRVEAQSQHLRSAGSKNVQDNERLVAEVGQSLRQISNALNR
tyrosine-phosphorylation level of Ena [1]: Ena phosphorylation levels were elevated by Aβ42 but reduced by STI571 | Cdk5-Y15 phosphorylation (Cdk5-pY15) and Cdk5 kinase activity after STI571 or dsRNA-abl [2]: both the Cdk5-pY15 and kinase activity were diminished
